Source: publication PMC4635569
Read-outs that look alike come from different tables or passages of the source.

Columns and labels:
[1] = target: plasma-derived human complement factor H (human) (UniProt P08603)
human C3b (human) [2] = target: human C3b (human) (UniProt P01024); test: SPR; C3b (~250 RU) or C3d (~70 RU) amine coupled to adjacent flow cells of a Biacore C1 chip; FH preincubated with or without a 2-fold molar excess of PspCN injected (90 s, 30 μl/min, 400 s dissociation); 1:1 binding model
human C3d (human) = human C3d (human) (UniProt P01024); test: as above
human C3b (human) [3] = target: human C3b (human) (UniProt P01024); test: as above; remark: listed apart in the source
C3d C3d (Homo sapiens) = C3d C3d (Homo sapiens) (UniProt P01024); conditions: cited from earlier work
C3b C3b (Homo sapiens) = C3b C3b (Homo sapiens) (UniProt P01024); conditions: cited from earlier work
[4] = target: His6-SUMO-tagged D39 PspC residues 37-140 (Streptococcus pneumoniae D39); test: SPR; PspC-derived proteins immobilised via N-terminal His6-SUMO tags on a Ni2+-loaded Biacore NTA chip (~150 RU); FH, rFH or rFH fragments flowed over (180 s, 100 μl/min, 1500 s dissociation); 25°C; 10 mM HEPES, 150 mM NaCl, 0.05% P20, pH 7.4, 50 μM EDTA; 1:1 binding model; equilibrium method for FH 8–9
[5] = target: (D39)PspCN, D39 PspC residues 37-140 after removal of the His6-SUMO tag (Streptococcus pneumoniae D39); test: SEC-MALS; 4.6 μM in PBS of FH, PspCN or a 1:1 complex; Superose12 10/300 GL column, 0.4 ml/min

Chain of human C3b (human) (P01024 23-667, chain 1 of 2): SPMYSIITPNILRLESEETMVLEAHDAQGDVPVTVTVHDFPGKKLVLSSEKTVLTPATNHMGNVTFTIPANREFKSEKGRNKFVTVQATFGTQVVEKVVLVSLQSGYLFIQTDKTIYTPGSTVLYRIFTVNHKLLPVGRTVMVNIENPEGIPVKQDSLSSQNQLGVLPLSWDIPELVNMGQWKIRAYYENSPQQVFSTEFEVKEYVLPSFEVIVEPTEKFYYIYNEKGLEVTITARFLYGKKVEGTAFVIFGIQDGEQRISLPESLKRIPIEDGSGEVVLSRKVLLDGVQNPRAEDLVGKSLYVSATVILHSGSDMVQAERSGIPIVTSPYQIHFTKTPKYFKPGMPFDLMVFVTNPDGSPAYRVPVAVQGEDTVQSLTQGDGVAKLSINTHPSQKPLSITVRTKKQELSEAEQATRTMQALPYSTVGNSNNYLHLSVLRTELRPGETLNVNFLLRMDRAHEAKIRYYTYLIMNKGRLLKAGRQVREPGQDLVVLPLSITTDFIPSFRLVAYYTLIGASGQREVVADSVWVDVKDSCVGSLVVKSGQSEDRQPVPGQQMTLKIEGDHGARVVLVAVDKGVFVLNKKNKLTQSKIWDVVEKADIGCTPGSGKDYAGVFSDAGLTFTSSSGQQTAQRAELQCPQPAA
Chain of human C3b (human) (P01024 749-1663, chain 2 of 2): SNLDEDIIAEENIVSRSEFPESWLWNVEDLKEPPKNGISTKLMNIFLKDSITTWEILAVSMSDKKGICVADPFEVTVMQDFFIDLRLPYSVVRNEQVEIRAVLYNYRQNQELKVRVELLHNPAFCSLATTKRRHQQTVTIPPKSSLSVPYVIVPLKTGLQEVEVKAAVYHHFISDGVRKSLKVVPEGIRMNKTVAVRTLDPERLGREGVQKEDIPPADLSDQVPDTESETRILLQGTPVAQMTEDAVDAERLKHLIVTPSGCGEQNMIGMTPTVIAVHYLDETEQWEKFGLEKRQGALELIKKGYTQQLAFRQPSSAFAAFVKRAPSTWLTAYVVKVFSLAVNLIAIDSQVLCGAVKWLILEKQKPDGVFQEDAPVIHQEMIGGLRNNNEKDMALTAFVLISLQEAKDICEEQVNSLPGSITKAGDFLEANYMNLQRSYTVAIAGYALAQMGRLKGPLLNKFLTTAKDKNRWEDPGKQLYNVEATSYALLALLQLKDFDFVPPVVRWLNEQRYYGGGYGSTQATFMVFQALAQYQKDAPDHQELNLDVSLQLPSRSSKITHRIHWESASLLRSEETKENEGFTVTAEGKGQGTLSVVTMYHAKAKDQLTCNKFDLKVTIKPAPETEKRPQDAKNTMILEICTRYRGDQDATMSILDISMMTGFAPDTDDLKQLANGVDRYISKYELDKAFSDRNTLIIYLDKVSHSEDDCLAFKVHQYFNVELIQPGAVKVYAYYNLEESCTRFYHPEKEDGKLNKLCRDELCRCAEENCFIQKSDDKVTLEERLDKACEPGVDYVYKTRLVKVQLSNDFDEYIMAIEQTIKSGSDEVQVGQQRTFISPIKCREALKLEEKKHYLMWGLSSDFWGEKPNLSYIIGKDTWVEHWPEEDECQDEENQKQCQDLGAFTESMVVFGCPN
Chain of human C3d (human) (P01024 1002-1303): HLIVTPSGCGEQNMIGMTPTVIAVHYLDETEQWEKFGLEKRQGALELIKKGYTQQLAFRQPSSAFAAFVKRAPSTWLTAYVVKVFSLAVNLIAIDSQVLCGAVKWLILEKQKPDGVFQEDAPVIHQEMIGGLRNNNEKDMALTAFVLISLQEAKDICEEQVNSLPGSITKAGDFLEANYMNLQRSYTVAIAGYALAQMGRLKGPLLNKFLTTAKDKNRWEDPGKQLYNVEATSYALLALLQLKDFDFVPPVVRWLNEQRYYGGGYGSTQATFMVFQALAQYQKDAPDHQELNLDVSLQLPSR
Chain of C3b C3b (Homo sapiens) (P01024 566-670): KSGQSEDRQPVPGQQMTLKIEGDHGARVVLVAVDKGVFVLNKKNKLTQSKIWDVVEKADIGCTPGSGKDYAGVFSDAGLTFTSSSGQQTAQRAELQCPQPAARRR
Chain of C3d C3d (Homo sapiens) (P01024 1002-1303): as the sequence (P01024 1002-1303) above

Substance: (D39)PspCN, D39 PspC residues 37-140 after removal of the His6-SUMO tag (domain or fragment)
- inhibition of acidified-serum lysis of PNH-like (AET-treated) human erythrocytes by increasing concentrations of (D39)PspCN; FH of the serum [1]: 28 nM

Substance: (D39)PspCN:FH complex (plasma-derived FH) (from UniProt P08603 19-1231)
- Kd (human C3b (human) [2]): 160 nM
- ratio of KD values for FH versus FH-PspCN (human C3b (human) [2]): 2.04
- Kd (human C3d (human)): 2300 nM

Substance: (D39)PspCN:FH(D1119G) complex (from UniProt P08603 19-1231)
- Kd (human C3b (human) [2]): 320 nM
- Kd (human C3b (human) [3]): 330 nM

Substance: (D39)PspCN:rFH complex (from UniProt P08603 19-1231)
- Kd (human C3b (human) [2]): 280 nM
- Kd (human C3d (human)): 2200 nM

Substance: (Tigr4)PspC_(37–179):FH complex (from UniProt P08603 19-1231)
- Kd (human C3b (human) [2]): 280 nM
- Kd (human C3d (human)): 1200 nM

Substance: Complement factor H CCP 19-20 (from UniProt P08603)
- Kd (C3d C3d (Homo sapiens)): 2000 nM
- Kd (C3b C3b (Homo sapiens)): 2000 nM

Substance: FH 8–9 (domain or fragment)
- Kd [4]: 30 nM

Substance: FH 8–15 (domain or fragment)
- Kd [4]: 1 nM

Substance: plasma-derived human complement factor H (from UniProt P08603 19-1231) (natural protein)
- stoichiometry N [5]: 1 FH:PspCN
- dissociation over 30 min (off-rate) (% over 30 min) [4]: < 0.2
